doi:10.1101/219402 (bioRxiv, 2017)

Molecular target: human CD3 on Jurkat cells (Homo sapiens (endogenous, Jurkat), UniProt P07766;P04234)
Test: flow cytometry on cells

Sequence of human CD3 on Jurkat cells (P04234 whole entry, looked up, chain 1 of 2): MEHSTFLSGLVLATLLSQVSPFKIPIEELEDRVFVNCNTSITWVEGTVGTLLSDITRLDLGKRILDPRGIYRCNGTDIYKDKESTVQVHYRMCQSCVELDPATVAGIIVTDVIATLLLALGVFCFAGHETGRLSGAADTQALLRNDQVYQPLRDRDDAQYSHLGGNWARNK
Sequence of human CD3 on Jurkat cells (P07766 23-207, looked up, chain 2 of 2): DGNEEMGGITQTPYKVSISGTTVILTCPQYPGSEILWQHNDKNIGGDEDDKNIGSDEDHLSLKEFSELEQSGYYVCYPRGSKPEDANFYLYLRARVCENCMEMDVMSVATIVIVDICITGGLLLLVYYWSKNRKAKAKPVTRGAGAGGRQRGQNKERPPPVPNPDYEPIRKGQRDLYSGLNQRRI

B1: R11 scFv-Fc (homodimeric monospecific anti-ROR1 scFv-Fc) (Fc fusion)
VH: QSVKESEGDLVTPAGNLTLTCTASGSDINDYPISWVRQAPGKGLEWIGFINSGGSTWYASWVKGRFTISRTSTTVDLKMTSLTTDDTATYFCARGYSTYYGDFNIWGPGTLVTISS
VL: ELVMTQTPSSTSGAVGGTVTINCQASQSIDSNLAWFQQKPGQPPTLLIYRASNLASGVPSRFSGSRSGTEYTLTISGVQREDAATYYCLGGVGNVSYRTSFGGGTEVVVK
B1: no binding (tested: 5 μg/mL).
